Laboratory results from patent US20220317121A1.

How the values were obtained:
Assay in all cases: line blot with purified recombinant antigen
[1] = target: H8-CD2BP2[human] (human) (UniProt O95400)
[2] = target: H8-TJP1[human](aa1-575) (human) (UniProt Q07157)
[3] = target: NVL[human]-IF1-H6 (human) (UniProt O15381)
Chain of UniProt O15381 (O15381 other isoform, or with tags, fused parts or gaps limits assumed): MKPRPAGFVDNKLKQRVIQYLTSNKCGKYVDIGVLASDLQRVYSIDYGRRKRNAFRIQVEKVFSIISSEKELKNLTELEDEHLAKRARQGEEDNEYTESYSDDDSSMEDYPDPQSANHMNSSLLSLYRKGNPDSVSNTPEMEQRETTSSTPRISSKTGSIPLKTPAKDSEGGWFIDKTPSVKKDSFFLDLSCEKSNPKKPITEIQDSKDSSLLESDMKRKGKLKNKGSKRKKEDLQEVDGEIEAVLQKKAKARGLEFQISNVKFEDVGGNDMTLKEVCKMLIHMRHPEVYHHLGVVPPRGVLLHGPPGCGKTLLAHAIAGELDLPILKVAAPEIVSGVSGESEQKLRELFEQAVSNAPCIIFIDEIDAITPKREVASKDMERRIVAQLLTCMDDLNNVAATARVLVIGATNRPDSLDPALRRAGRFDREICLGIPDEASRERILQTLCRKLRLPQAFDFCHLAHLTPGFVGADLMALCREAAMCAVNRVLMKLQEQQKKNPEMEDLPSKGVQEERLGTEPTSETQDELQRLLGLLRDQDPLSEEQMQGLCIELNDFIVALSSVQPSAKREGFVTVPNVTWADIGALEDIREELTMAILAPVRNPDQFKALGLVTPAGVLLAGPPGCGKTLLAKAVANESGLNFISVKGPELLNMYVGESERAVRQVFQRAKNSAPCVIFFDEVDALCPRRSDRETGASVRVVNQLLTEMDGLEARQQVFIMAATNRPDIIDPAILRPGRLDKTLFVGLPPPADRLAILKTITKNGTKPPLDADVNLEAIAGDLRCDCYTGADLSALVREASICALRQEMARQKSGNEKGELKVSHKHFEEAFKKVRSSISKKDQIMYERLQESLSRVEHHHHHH

Chain of UniProt O95400 (O95400 other isoform, or with tags, fused parts or gaps limits assumed): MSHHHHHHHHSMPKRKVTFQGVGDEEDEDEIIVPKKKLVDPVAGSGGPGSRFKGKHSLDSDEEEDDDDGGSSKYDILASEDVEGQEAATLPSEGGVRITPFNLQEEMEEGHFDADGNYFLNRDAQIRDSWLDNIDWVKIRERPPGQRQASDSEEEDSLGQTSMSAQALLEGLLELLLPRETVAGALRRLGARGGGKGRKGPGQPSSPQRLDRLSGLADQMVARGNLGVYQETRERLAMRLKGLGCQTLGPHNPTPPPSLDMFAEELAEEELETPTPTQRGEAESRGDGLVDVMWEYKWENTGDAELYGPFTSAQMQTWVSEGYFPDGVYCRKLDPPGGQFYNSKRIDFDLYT
Chain of UniProt Q07157 (Q07157 other isoform, or with tags, fused parts or gaps limits assumed): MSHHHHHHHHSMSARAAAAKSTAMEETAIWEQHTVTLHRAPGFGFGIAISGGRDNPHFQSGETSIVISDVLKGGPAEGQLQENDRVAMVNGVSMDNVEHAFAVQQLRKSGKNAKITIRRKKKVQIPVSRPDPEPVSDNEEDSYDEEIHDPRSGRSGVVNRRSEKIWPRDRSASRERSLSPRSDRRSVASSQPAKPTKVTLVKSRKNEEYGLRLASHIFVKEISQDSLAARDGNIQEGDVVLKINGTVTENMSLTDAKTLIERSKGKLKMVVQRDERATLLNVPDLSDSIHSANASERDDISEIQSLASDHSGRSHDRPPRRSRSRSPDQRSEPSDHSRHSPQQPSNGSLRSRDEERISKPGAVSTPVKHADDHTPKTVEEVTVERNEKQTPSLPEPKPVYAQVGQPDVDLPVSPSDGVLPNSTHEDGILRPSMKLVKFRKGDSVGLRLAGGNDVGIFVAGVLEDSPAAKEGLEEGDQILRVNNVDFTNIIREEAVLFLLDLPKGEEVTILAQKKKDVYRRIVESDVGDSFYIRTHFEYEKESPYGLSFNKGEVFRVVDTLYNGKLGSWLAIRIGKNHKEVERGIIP

Substance “anti-His-tag-AP (monoclonal anti-His-AP antibody produced in mouse, A5588, Sigma-Aldrich)” has a band intensity [1] of 111, a band intensity [2] of 101 and a band intensity [3] of 15.
